Reference: a protein production outcome set (Wang et al. 2014)

Assay: label from the status in PepcDB records

Sequence | protein production
MEYTTLAVLAGLPEDPHGAVGLPIYAVAAYGFKTLEEGQERFATGEGYVYARQKDPTAKALEERLKALEGALEAVVLASGQAATFAALLALLRPGDEVVAAKGLFGQTIGLFGQVLSLMGVTVRYVDPEPEAVREALSAKTRAVFVETVANPALLVPDLEALATLAEEAGVALVVDNTFGAAGALCRPLAWGAHVVVESLTKWASGHGSVLGGAVLSRETELWRNYPQFLQPDLKGQIPWEALRARCFPERVRTLGLSLCGMALSPFNAYLLFQGLETVALRVARMSETARFLAERLQGHPKVKALRYPGLPEDPAHRNARKYLASGGPILTLDLGDLERASRFLGAIRLLKAANLGDARTLLVHPWTTTHSRLKEEARLQAGVTPGLVRVSVGLEDPLDLLALFEEALEAV | not failed
MEYVNPEGLRLDGRRFNEMRQIVAEVGVVSKADGSAVFEMGNTKVIAAVYGPREIQNKSQQKKNDHAVVLCEYSMAQFSTGDRRRQKFDRRSTELSLVIRQTMEACILTELMPHSQIDIFLQVLQADGGTRSACINAATLALADAGIPMRDLAVSCSAGYLNSTPLLDLNYVEDSAGGADVTVGILPKLDKVSLLQMDAKLPMETFETVFALASEGCKAIAERIREVLQENTKQLEYRRAA | failed
MEYVYAALILNEADEEINEDNLTDVLDAAGVDVEESRVKALVAALEDVDIEEAVDQAAAAPVPASGGAAAPAEGDADEADEADEEAEEEAADDGGDDDDDEDDEASGEGLGELFGLEHHHHHH | not failed
MFALISKINPGAWWLIFAIATDVLSTFYSAKGNGLVNKTAQGIALVLYIISFACAAIALKYMQAGILYVLWSGVGVLATAFLAKIFLGQNIDVAGWIGIGFITVGLMIIAQYY | failed
MFALPQAGDRRGEIIKVLLSNGWDYMNGLLTLGKVGEPQIPTPEVLTKILVELGPFYIKLGQLLSTRPDLLPPRYINALTALQSNVPPLPWSAIEDLLQREFPQPLGETFQEIESEPIAAGSIGQIHRAVLQSGETVAIKVKRPGIDVIVEQDSLLIKDVAELLALTEFGQNYDIVKLADEFTQTVKAELNFDTEAAYTNNLRTNLAKTTWFDPNQLVIPKVYWELTNQKFLVLEWLDGVPILTADLTQPPSDKDIAEKKKEITTLLFRAFFQQLYVDGFFHADPHPGNIFYLADGRLALIDCGMVGRLDPRTRQLLTEMLLAIVDLDAKRCAQLTVELSESVGRVNFQRLEVDYERMLRKYYDLSLSEFNFSEVVYEFLRIARVNKLKVPACLGLYAKCLANLEGAG | failed
MFAQLVMGPAGSGKSTYCHALQQHGEIVGQLVHVVNLDPAAERFEYKPVADIRDLITVTDVAEELSLGPNGSLVYCMEYLLEDQDWLEQVLSETAEDDYLVFDMPGQIELYTHFECVRQFVYVLQSQFSMRVCSIFLLDAQFLADASKFFAGSLTAMAAMLHLGLPHLNVLSKADLLRHRIEHRDNTLEPLSSDAEAPNSDEALDEFLERFLNPDIQSLVSELSEQMDTRYRALNERIGALLEDYAIVQFVPYSATDEDSIGELLLRANLLLQYDDDRDVRIHPELD | failed
MFASLVIPVSAQANSGEMPQEQQLAVKYMDALTEHDYKTLITFYNRDSIFFDKTANRKYTGGRFIIDFLERAHQGVLEYDFNIEHMYNAGSLVVMIGNYHFKGPGEQFGKPGKIIDVAIPAVTSLKLDMLNRRVTEHVDLIDYQTMSDQLAMQ | not failed
MFCTLAGYRWLNSGSLLRRLSQRAVRRLPTAPLCHLHNGATESAASNGALRIVDEKVAYRRYATVFERTVQYPDGRHVTYDILGQPAVQSASVLVFPFDTQSKTCYVIREYCPGPNRVLYGFPAGMVETKHESLEAAARAELSEEAHLRCAQLIDLTAQAAVWERSFEVPNTASDAENCLRGFFADKYSRNVCKMYLALNPEPDGHPGSMDAEELIEQVGAVRVPQLEAWLWSGQMTMPHMLLAMCALTYLRQRGMLT | failed
MFDRLKNGEKIAPIVKEVESQITEVHKRADEVIESNQFRVLESFGKHKISDSHFIPTTGYGYDDIGRDTLEKVYADVFGAEAGLVRPQIISGTHAISTALFGILRPGDELLYITGKPYDTLEEIVGVRGKGVGSFKEYNIGYNAVPLTEGGLVDFEAVAAAIHSNTKMIGIQRSKGYATRPSFTISQIKEMIAFVKEIKPDVVVFVDNCYGEFIEEQEPCHVGADLMAGSLIKNPGGGIVKTGGYIVGKEQYVEACAYRLTSPGIGAEAGASLYSLQEMYQGFFLAPHVAGQALKGAIFTAAFLEKLGMNTSPAWNAPRTDLIQSVQFDDKDRMIAFCQAIQYASPINSHFTPYANYMPGYEDDVIMAAGTFIQGASIELSADGPIRPPYVAYVQGGLTYSHVKIAICSAIDELIEKNLLTISLEHHHHHH | not failed
MFEASTFLLFMGSAIMLIIIPGPDLVFTITQGMTNGRKAGVITAMGLSLGNIVHTLAAVLGLSLIIQTSVVVFTIFKLAGAMYLFYLAYKALKHRKEEIRVNSEKTNDLKGLFLRGLIMNVLNPKVAIFYLTFLPQFVNYQSANISLQLCILGLIFIIMTAIIFSIFGYFSGTFRDRLLKNSRFNEYMNIAATIIFIGLGLKLMTTQL | failed
MFEGERHMFDVQREELIWGDRKLVLETGKTARQADGSVVATYGETTVLATVVAGKEPKAGIDFLPLTVNYQERAYAAGRIPGGYFKREGRPSEKETLVSRLIDRPIRPLFVEGWRNDTQVVVTVLSHDLENDPDIVAMVAASAALTLSGVPFMGPIGAARVGYLNGGYKLNPLVTEIAESTLDLVVAGTQDAVLMVESEAKELSEDVMLGAVMFGHKHFQPVIEAIIRLAEKAAKEPRDFTPPENADVEAAVLAVAETELREAYKKTVKQERYAAVDAVKAKVVAALCPAEGEQKFSPEKVKAAFKEAQSKVVRWNILDTGSRIDGRDVKTVRSIVSEVGVLPRAHGSSLFTRGETQALVVATLGTGEDEQFIDALEGTYKERFLLHYNFPPYSVGETGRMGSPGRREIGHGKLAWRAIRPVLPPAHEFPYTIRVVSEITESNGSSSMASVCGGSLSLMDAGVPLRRPVAGIAMGLILEGERFAVLSDILGDEDHLGDMDFKVAGSEEGITSLQMDIKIAGITEEIMKIALAQAKDGRAHILGEMSKALTAARPELGEYAPRIETMQIPTDKIRDVIGTGGKIIREIVEKTGAKINIEDTGIVKIASSDGKAIKAAYNWIRSIVAEPEAGTIYDGTIVKIMEFGAFVNFFGAKDGLVHISELAAQRVAKVGDVVKEGQKVKVKFLGADERGKIRLSMKVVDQETGEDLTEKLKAERAERGEPEREERSDRGDRGDRGPRRDRGERRRESSGE | failed
MFEKQFNHRTLETSLGPVEIEGPVTSQILATYKLDPGLTAFRQPAEQHEALVEIAALEEGRIIIARQGNDIIGYVTFLYPDPYETWSEGNNPYILELGAIEVAARFRGQQIGKKLLEVSMLDPAMEHYLILTTEYYWHWDLKGSGLSVWDYRKIMEKMMNHGGLVFFPTDDPEIASHPANCLMARIGKHVAPEVVAHFDALRLRRRFMYD | not failed
MFESAEVGHSIDKDTYEKAVIELREALLEAQFELKQQARFPVIILINGIEGAGKGETVKLLNEWMDPRLIEVQSFLRPSDEELERPPQWRFWRRLPPKGRTGIFFGNWYSQMLYARVEGHIKEAKLDQAIDAAERFERMLCDEGALLFKFWFHLSKKQLKERLKALEKDPQHSWKLSPLDWKQSEVYDRFVHYGERVLRRTSRDYAPWYVVEGADERYRALTVGRILLEGLQAALATKERAKRQPHAAPLVSSLDNRGLLDSLDLGQYLDKDAYKEQLAAEQARLAGLIRDKRFRQHSLVAVFEGNDAAGKGGAIRRVTDALDPRQYHIVPIAAPTEEERAQPYLWRFWRHIPARRQFTIFDRSWYGRVLVERIEGFCAPADWLRAYGEINDFEEQLSEYGIIVVKFWLAIDKQTQMERFKEREKTPYKRYKITEEDWRNRDKWDQYVDAVGDMVDRTSTEIAPWTLVEANDKRFARVKVLRTINDAIEAAYKKDK | not failed
MFGFFSPAPAIPRLPKDKVSSAYKAYRIRMFLMIFIGYTGYYLVRKNFAVASPYLIDNYGFSKTQIGLISMGLAVSYGLSKFILGNLSDKSNVKKFICFGLIASSVLSVLMGFARTVPIFLILMVFNGFFQGMGAPPCSIVLGKWFSQKERGLKMGIWNTSHNIGGGLIAPIATLCLLVFGQNHFQSIFFVPAIICTIVALFCYVIGADTPASVGLPPVEEYRNDYPEVKAEVNPTTLSSKEIMVKYVLKNKYVWYLALANIFVYLIRQGVVNWIPIYLKESKGFSAANANWAMFLFEYAAIPASILLGWLSDVVFKGKRAPLSILCMIGVIFATVAYWQTSSTLVTMISVAFIGCFIYGPQLLIGMNLIDVVPNFAVGSATGFSGLCGYLLGEFMADFVLGMIADSFGWNGAFIFIIVGAFIALLLLALTLKIKKNPQVEDKIA | failed
MFGGAKGGHFGVPPAGYSGAVPQSEAGTKAGPAGGRPADTMWRVRCKAKGGTHLLQGLSSRTRLRELQGQIAAITGIAPGSQRILVGYPPECLDLSDRDITLGDLPIQSGDMLIVEEDQTRPKASPAFSKYGAPSYVREALPVLTRTAVPADNSCLFTSVYYVVEGGVLNPACAPEMRRLIAQIVASDPVLYSEAILGKTNEDYCDWIRRDDTWGGAIEISILSKFYQCEICVVDTQTVRIDRFGEDAGYTKRVLLIYDGIHYDPLQRNFPDPDTPPLTIFSSNDDIVLVQALELADEARRKRQFTDVNRFTLRCMICQKGLTGQAEARDHARETGHTNFGEV | failed
MFGRCVRVKENMTYTEFVRTLSEAFSLKSTEINPIISYWMPGEMLVMIDTKRLPVYIDSQVGLNTFFMIRGRYPSLNLFVSFITTVKTLENNVSRTHGDDAESDRVSNVDENNEAVDEQDDVEDDKTDEDEEEGDNEDGDGYDDYQGDDGSMGGSTLDPTIDGSESNGEDYDYNKWNDVIVEEYGIGNVEENVILIPGEFSRLLAECTYTS | failed
MFGRDGRLKESRVQKPERQQRLFGLSTPLRSAVIPPLSAARWLLVLIVAAGVYFFHGFLFPVLAALVIAFASWPLYQRLLAGVGGNRTIAATLAILFILAFLVIPIALAGTYAINEVREWVGWAIETNRHGAVTPHWIATMPVVGDWLNEQWTTNFGHPGGIGELIQLISGANIGSIYRGALAAGGSAFGLLLTLLFMMIALFFAYRDGEHFAGQVDRLGERILPTRWERISRVVPATISSTVTGMTVIAIGEGLVLGIAYWLAGVPSPVTLGALTGVMALIPGGAPLSFTLVSIYLAASGSPMAGLALFLWGAVELFIVDKTLRPKLVGGPIKLPFLPTFFGLIGGVKTMGFLGLFIGPVLMALLVAIWREWLREVELVDELAAGSAAEIEATPQIEVLPEPGVAKKARA | failed
MFHAAFMEERVFSDRGSMRNACSSIEYDGCRQGQSGPLLEEKEVKRKLFGALALVAMLAAPALAEAATRGFATANVNMRSGPSTAYPAVVVIPVGAPLTVHGCLSDTPWCDVSFVNGRGWVAGRYIQTTFRQNRVYVEPRYYRDLGVPVITFEAGRYWDRYYRDRDFYRERDRWRRPPPSGGYWNAPPPSAGWDRPRPRDDWRDGRRDDGRRDEWRDPRQGGPNDGRWERRYGDWNQGDRNQDRPRRDDDRRRWEDENRDRNRDRDSNRDGNRDRPQNQYDGQRGQLEGQPRPPAPAPDAPLQGCIIGSPGCAQRLEHHHHHH | not failed
MFHKALWMRQWKQGKYIILLFWLTSLYQLPYKYYQEAQTQLKLSKMKFGDYTYYYSYYFQTSDGAVFFQGATLIALACLLIGWERNNQSNDFLFSMPFKRKDIFLTKWWLGVLNIITVQIICLISMYGIKNMSFHNEYQTFAPFYSYFLYATVVLIAIYTFALFIGTITGHIFSQSILTIILLFLPYGFGLLISGFIYSHTQWSVDAMGEIEYHTHEYLQHIGIISPLEYFSITYDYHPIETFDDYGNKLPSVSQDNPTERISVPSPWTLLTPFSYIITFLSIATFLYTRTPNEQSGKILLFPNLQKWFIICTVLCFGLLGGRILGGRDALLSYYVGFFLFATISYFIFTRLLKLKFAFAGK | failed
